Measurements reported in patent US20240279278A1, “NMU RECEPTOR 2 AGONISTS” (Boehringer Ingelheim International GmbH, priority 2023, published 2024).
Read-outs that look alike come from different tables or passages of the source. Blank lines part the entries; values can stand above or below the binder they belong to.

What was measured:
[1] = molecular target: T1, human neuromedin U receptor 1 (human, UniProt Q9HB89 24-426); experiment: cell-based or functional assay
T1 sequence (looked up): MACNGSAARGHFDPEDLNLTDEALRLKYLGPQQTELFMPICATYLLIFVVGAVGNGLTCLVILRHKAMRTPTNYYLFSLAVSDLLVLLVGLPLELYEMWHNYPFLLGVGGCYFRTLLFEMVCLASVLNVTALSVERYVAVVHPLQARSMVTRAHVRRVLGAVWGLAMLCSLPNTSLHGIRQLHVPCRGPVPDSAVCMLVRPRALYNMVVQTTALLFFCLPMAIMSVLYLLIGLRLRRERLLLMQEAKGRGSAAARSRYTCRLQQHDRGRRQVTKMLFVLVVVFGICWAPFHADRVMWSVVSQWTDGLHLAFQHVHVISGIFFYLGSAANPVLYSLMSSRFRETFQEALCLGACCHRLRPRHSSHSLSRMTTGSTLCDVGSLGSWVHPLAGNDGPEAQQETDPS

[2] = molecular target: T1, human neuromedin U receptor 1; experiment: cell-based or functional assay; remark: listed apart in the source

EC50 (hNMUR1) buffer [1]: > 1000 nM
B1: C18DA-gGlu3-Sar12-AEPipAc-Tyr-Phe-NMeLeu-Nle-Dbu-NMeAla-Arg-Gly-NH2 (peptide)
peptide: EEEXXXXXXXXXXXXXYFLXXARG
HELM: PEPTIDE1{[O=C(O)CCCCCCCCCCCCCCCCC(=O)[*:2]].[gGlu].[gGlu].[gGlu].[Sar].[Sar].[Sar].[Sar].[Sar].[Sar].[Sar].[Sar].[Sar].[Sar].[Sar].[Sar].[O=C(CN1CCN(CCN[*:1])CC1)[*:2]].Y.F.[meL].[Nle].[Dab].[meA].R.G.[am]}$$$$V2.0
SMILES: CCCC[C@H](NC(=O)[C@H](CC(C)C)N(C)C(=O)[C@H](Cc1ccccc1)NC(=O)[C@H](Cc1ccc(O)cc1)NC(=O)CN1CCN(CCNC(=O)CN(C)C(=O)CN(C)C(=O)CN(C)C(=O)CN(C)C(=O)CN(C)C(=O)CN(C)C(=O)CN(C)C(=O)CN(C)C(=O)CN(C)C(=O)CN(C)C(=O)CN(C)C(=O)CN(C)C(=O)CC[C@H](NC(=O)CC[C@H](NC(=O)CC[C@H](NC(=O)CCCCCCCCCCCCCCCCC(=O)O)C(=O)O)C(=O)O)C(=O)O)CC1)C(=O)N[C@@H](CCN)C(=O)N(C)[C@@H](C)C(=O)N[C@@H](CCCNC(=N)N)C(=O)NCC(N)=O

EC50 (hNMUR1) buffer [1]: > 1000 nM
B2: C20DA-gGlu3-Sar15-AEPipAc-Tyr-Phe-NMeLeu-Nle-Dbu-NMeAla-Arg-Gly-NH2 (peptide)
peptide: EEEXXXXXXXXXXXXXXXXYFLXXARG
HELM: PEPTIDE1{[O=C(O)CCCCCCCCCCCCCCCCCCC(=O)[*:2]].[gGlu].[gGlu].[gGlu].[Sar].[Sar].[Sar].[Sar].[Sar].[Sar].[Sar].[Sar].[Sar].[Sar].[Sar].[Sar].[Sar].[Sar].[Sar].[O=C(CN1CCN(CCN[*:1])CC1)[*:2]].Y.F.[meL].[Nle].[Dab].[meA].R.G.[am]}$$$$V2.0
SMILES: CCCC[C@H](NC(=O)[C@H](CC(C)C)N(C)C(=O)[C@H](Cc1ccccc1)NC(=O)[C@H](Cc1ccc(O)cc1)NC(=O)CN1CCN(CCNC(=O)CN(C)C(=O)CN(C)C(=O)CN(C)C(=O)CN(C)C(=O)CN(C)C(=O)CN(C)C(=O)CN(C)C(=O)CN(C)C(=O)CN(C)C(=O)CN(C)C(=O)CN(C)C(=O)CN(C)C(=O)CN(C)C(=O)CN(C)C(=O)CN(C)C(=O)CC[C@H](NC(=O)CC[C@H](NC(=O)CC[C@H](NC(=O)CCCCCCCCCCCCCCCCCCC(=O)O)C(=O)O)C(=O)O)C(=O)O)CC1)C(=O)N[C@@H](CCN)C(=O)N(C)[C@@H](C)C(=O)N[C@@H](CCCNC(=N)N)C(=O)NCC(N)=O

EC50 (hNMUR1) buffer [1]: 120 nM
B3: C20DA-gGlu3-Sar12-AEPipAc-Tyr-Phe-NMeLeu-Nle-Arg-Pro-Arg-Gly-NH2 (peptide)
peptide: EEEXXXXXXXXXXXXXYFLXRPRG
HELM: PEPTIDE1{[O=C(O)CCCCCCCCCCCCCCCCCCC(=O)[*:2]].[gGlu].[gGlu].[gGlu].[Sar].[Sar].[Sar].[Sar].[Sar].[Sar].[Sar].[Sar].[Sar].[Sar].[Sar].[Sar].[O=C(CN1CCN(CCN[*:1])CC1)[*:2]].Y.F.[meL].[Nle].R.P.R.G.[am]}$$$$V2.0
SMILES: CCCC[C@H](NC(=O)[C@H](CC(C)C)N(C)C(=O)[C@H](Cc1ccccc1)NC(=O)[C@H](Cc1ccc(O)cc1)NC(=O)CN1CCN(CCNC(=O)CN(C)C(=O)CN(C)C(=O)CN(C)C(=O)CN(C)C(=O)CN(C)C(=O)CN(C)C(=O)CN(C)C(=O)CN(C)C(=O)CN(C)C(=O)CN(C)C(=O)CN(C)C(=O)CN(C)C(=O)CC[C@H](NC(=O)CC[C@H](NC(=O)CC[C@H](NC(=O)CCCCCCCCCCCCCCCCCCC(=O)O)C(=O)O)C(=O)O)C(=O)O)CC1)C(=O)N[C@@H](CCCNC(=N)N)C(=O)N1CCC[C@H]1C(=O)N[C@@H](CCCNC(=N)N)C(=O)NCC(N)=O

EC50 (hNMUR1) buffer [1]: 890 nM
B4: C20DA-gGlu3-Sar15-AEPipAc-Tyr-Phe-NMeLeu-Nle-Orn-Pro-Arg-Gly-NH2 (peptide)
peptide: EEEXXXXXXXXXXXXXXXXYFLXXPRG
HELM: PEPTIDE1{[O=C(O)CCCCCCCCCCCCCCCCCCC(=O)[*:2]].[gGlu].[gGlu].[gGlu].[Sar].[Sar].[Sar].[Sar].[Sar].[Sar].[Sar].[Sar].[Sar].[Sar].[Sar].[Sar].[Sar].[Sar].[Sar].[O=C(CN1CCN(CCN[*:1])CC1)[*:2]].Y.F.[meL].[Nle].[Orn].P.R.G.[am]}$$$$V2.0
SMILES: CCCC[C@H](NC(=O)[C@H](CC(C)C)N(C)C(=O)[C@H](Cc1ccccc1)NC(=O)[C@H](Cc1ccc(O)cc1)NC(=O)CN1CCN(CCNC(=O)CN(C)C(=O)CN(C)C(=O)CN(C)C(=O)CN(C)C(=O)CN(C)C(=O)CN(C)C(=O)CN(C)C(=O)CN(C)C(=O)CN(C)C(=O)CN(C)C(=O)CN(C)C(=O)CN(C)C(=O)CN(C)C(=O)CN(C)C(=O)CN(C)C(=O)CC[C@H](NC(=O)CC[C@H](NC(=O)CC[C@H](NC(=O)CCCCCCCCCCCCCCCCCCC(=O)O)C(=O)O)C(=O)O)C(=O)O)CC1)C(=O)N[C@@H](CCCN)C(=O)N1CCC[C@H]1C(=O)N[C@@H](CCCNC(=N)N)C(=O)NCC(N)=O

EC50 (hNMUR1) buffer [1]: 250 nM
B5: C18DA-gGlu3-Sar15-AEPipAc-Tyr-Phe-NMeLeu-Nle-Arg-Pro-Arg-Gly-NH2 (peptide)
peptide: EEEXXXXXXXXXXXXXXXXYFLXRPRG
HELM: PEPTIDE1{[O=C(O)CCCCCCCCCCCCCCCCC(=O)[*:2]].[gGlu].[gGlu].[gGlu].[Sar].[Sar].[Sar].[Sar].[Sar].[Sar].[Sar].[Sar].[Sar].[Sar].[Sar].[Sar].[Sar].[Sar].[Sar].[O=C(CN1CCN(CCN[*:1])CC1)[*:2]].Y.F.[meL].[Nle].R.P.R.G.[am]}$$$$V2.0
SMILES: CCCC[C@H](NC(=O)[C@H](CC(C)C)N(C)C(=O)[C@H](Cc1ccccc1)NC(=O)[C@H](Cc1ccc(O)cc1)NC(=O)CN1CCN(CCNC(=O)CN(C)C(=O)CN(C)C(=O)CN(C)C(=O)CN(C)C(=O)CN(C)C(=O)CN(C)C(=O)CN(C)C(=O)CN(C)C(=O)CN(C)C(=O)CN(C)C(=O)CN(C)C(=O)CN(C)C(=O)CN(C)C(=O)CN(C)C(=O)CN(C)C(=O)CC[C@H](NC(=O)CC[C@H](NC(=O)CC[C@H](NC(=O)CCCCCCCCCCCCCCCCC(=O)O)C(=O)O)C(=O)O)C(=O)O)CC1)C(=O)N[C@@H](CCCNC(=N)N)C(=O)N1CCC[C@H]1C(=O)N[C@@H](CCCNC(=N)N)C(=O)NCC(N)=O

EC50 (hNMUR1) buffer [2]: > 1000 nM
B6: C20DA-gGlu4-Sar12-AEPipAc-Tyr-Phe-NMeLeu-Nle-Dbu-NMeAla-Arg-Gly-NH2 (peptide)
peptide: EEEEXXXXXXXXXXXXXYFLXXARG
HELM: PEPTIDE1{[O=C(O)CCCCCCCCCCCCCCCCCCC(=O)[*:2]].[gGlu].[gGlu].[gGlu].[gGlu].[Sar].[Sar].[Sar].[Sar].[Sar].[Sar].[Sar].[Sar].[Sar].[Sar].[Sar].[Sar].[O=C(CN1CCN(CCN[*:1])CC1)[*:2]].Y.F.[meL].[Nle].[Dab].[meA].R.G.[am]}$$$$V2.0
SMILES: CCCC[C@H](NC(=O)[C@H](CC(C)C)N(C)C(=O)[C@H](Cc1ccccc1)NC(=O)[C@H](Cc1ccc(O)cc1)NC(=O)CN1CCN(CCNC(=O)CN(C)C(=O)CN(C)C(=O)CN(C)C(=O)CN(C)C(=O)CN(C)C(=O)CN(C)C(=O)CN(C)C(=O)CN(C)C(=O)CN(C)C(=O)CN(C)C(=O)CN(C)C(=O)CN(C)C(=O)CC[C@H](NC(=O)CC[C@H](NC(=O)CC[C@H](NC(=O)CC[C@H](NC(=O)CCCCCCCCCCCCCCCCCCC(=O)O)C(=O)O)C(=O)O)C(=O)O)C(=O)O)CC1)C(=O)N[C@@H](CCN)C(=O)N(C)[C@@H](C)C(=O)N[C@@H](CCCNC(=N)N)C(=O)NCC(N)=O

EC50 (hNMUR1) buffer [1]: 1500 nM
B7: C20DA-gGlu3-Sar15-AEPipAc-Tyr-Phe-NMeLeu-Nle-Dbu-Pro-Arg-Gly-NH2 (peptide)
peptide: EEEXXXXXXXXXXXXXXXXYFLXXPRG
HELM: PEPTIDE1{[O=C(O)CCCCCCCCCCCCCCCCCCC(=O)[*:2]].[gGlu].[gGlu].[gGlu].[Sar].[Sar].[Sar].[Sar].[Sar].[Sar].[Sar].[Sar].[Sar].[Sar].[Sar].[Sar].[Sar].[Sar].[Sar].[O=C(CN1CCN(CCN[*:1])CC1)[*:2]].Y.F.[meL].[Nle].[Dab].P.R.G.[am]}$$$$V2.0
SMILES: CCCC[C@H](NC(=O)[C@H](CC(C)C)N(C)C(=O)[C@H](Cc1ccccc1)NC(=O)[C@H](Cc1ccc(O)cc1)NC(=O)CN1CCN(CCNC(=O)CN(C)C(=O)CN(C)C(=O)CN(C)C(=O)CN(C)C(=O)CN(C)C(=O)CN(C)C(=O)CN(C)C(=O)CN(C)C(=O)CN(C)C(=O)CN(C)C(=O)CN(C)C(=O)CN(C)C(=O)CN(C)C(=O)CN(C)C(=O)CN(C)C(=O)CC[C@H](NC(=O)CC[C@H](NC(=O)CC[C@H](NC(=O)CCCCCCCCCCCCCCCCCCC(=O)O)C(=O)O)C(=O)O)C(=O)O)CC1)C(=O)N[C@@H](CCN)C(=O)N1CCC[C@H]1C(=O)N[C@@H](CCCNC(=N)N)C(=O)NCC(N)=O

EC50 (hNMUR1) buffer [2]: 1200 nM
B8: C20DA-gGlu4-Sar12-AEPipAc-Tyr-Phe-NMeLeu-Nle-Lys-Pro-Arg-Gly-NH2 (peptide)
peptide: EEEEXXXXXXXXXXXXXYFLXKPRG
HELM: PEPTIDE1{[O=C(O)CCCCCCCCCCCCCCCCCCC(=O)[*:2]].[gGlu].[gGlu].[gGlu].[gGlu].[Sar].[Sar].[Sar].[Sar].[Sar].[Sar].[Sar].[Sar].[Sar].[Sar].[Sar].[Sar].[O=C(CN1CCN(CCN[*:1])CC1)[*:2]].Y.F.[meL].[Nle].K.P.R.G.[am]}$$$$V2.0
SMILES: CCCC[C@H](NC(=O)[C@H](CC(C)C)N(C)C(=O)[C@H](Cc1ccccc1)NC(=O)[C@H](Cc1ccc(O)cc1)NC(=O)CN1CCN(CCNC(=O)CN(C)C(=O)CN(C)C(=O)CN(C)C(=O)CN(C)C(=O)CN(C)C(=O)CN(C)C(=O)CN(C)C(=O)CN(C)C(=O)CN(C)C(=O)CN(C)C(=O)CN(C)C(=O)CN(C)C(=O)CC[C@H](NC(=O)CC[C@H](NC(=O)CC[C@H](NC(=O)CC[C@H](NC(=O)CCCCCCCCCCCCCCCCCCC(=O)O)C(=O)O)C(=O)O)C(=O)O)C(=O)O)CC1)C(=O)N[C@@H](CCCCN)C(=O)N1CCC[C@H]1C(=O)N[C@@H](CCCNC(=N)N)C(=O)NCC(N)=O
